Where two headings read alike, the source gives them in different places.
Tests used:
[1] = target: T1, cyno TIGIT on cells (cynomolgus macaque); experiment: flow cytometry of fab; MFI on cyno TIGIT over-expressing Expi293 / MFI on parental Expi293
T1 construct: whole, on cells; also called Expi293 cyno TIGIT over-expressing cells

[2] = target: T2, human TIGIT on cells (human, UniProt Q495A1 22-141); experiment: flow cytometry of fab; MFI on human TIGIT over-expressing Expi293 / MFI on parental Expi293
T2 construct: also called Expi293 human TIGIT over-expressing cells
T2 sequence: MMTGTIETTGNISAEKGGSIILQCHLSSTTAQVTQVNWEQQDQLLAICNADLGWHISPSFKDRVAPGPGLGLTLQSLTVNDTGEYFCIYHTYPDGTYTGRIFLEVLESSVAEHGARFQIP

[3] = target: T3, Cyno TIGIT-His; experiment: SPR (ProteOn), Cyno TIGIT-His
T3 construct: also called cyno TIGIT monomer (prepared in-house); C-terminal HIS-tagged cyno TIGIT ECD recombinant protein

[4] = target: T4, human TIGIT ECD with C-terminal polyhistidine tag (human, UniProt Q495A1 22-141); experiment: SPR (ProteOn), Human TIGIT-His
T4 construct: in-house or Sino Biological; also called hTIGIT-HIS; human TIGIT-HIS
T4 sequence: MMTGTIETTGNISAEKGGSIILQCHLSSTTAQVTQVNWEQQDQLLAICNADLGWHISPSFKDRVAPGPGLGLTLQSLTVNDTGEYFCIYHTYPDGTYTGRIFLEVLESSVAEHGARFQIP

[5] = target: T5, Mouse TIGIT-His (mouse, UniProt P86176); experiment: SPR (ProteOn), Mouse TIGIT-His
T5 construct: also called mouse TIGIT monomer (prepared in-house)
T5 sequence (soluble monomer with His tag, looked up): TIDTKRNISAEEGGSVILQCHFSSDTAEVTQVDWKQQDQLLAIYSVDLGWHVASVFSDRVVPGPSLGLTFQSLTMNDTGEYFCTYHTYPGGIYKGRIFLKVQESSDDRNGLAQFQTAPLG

[6] = target: T1, cyno TIGIT on cells; experiment: FACS titration of AF647-labelled mAb on cyno effector memory CD8+ T cells, Cyno Donor 1; isotype gMFI subtracted
[7] = target: T1, cyno TIGIT on cells; experiment: FACS titration of AF647-labelled mAb on cyno effector memory CD8+ T cells, Cyno Donor 3; isotype gMFI subtracted
[8] = target: T6, human PVRIG on cells (human, UniProt Q6DKI7 1-326); experiment: FACS, HEK hPVRIG cells (HEK OE)
T6 construct: whole, on cells; over-expressed on HEK cells or endogenous on Jurkat and CD8 T cells; also called hPVRIG; HEK hPVRIG cells
T6 sequence (looked up): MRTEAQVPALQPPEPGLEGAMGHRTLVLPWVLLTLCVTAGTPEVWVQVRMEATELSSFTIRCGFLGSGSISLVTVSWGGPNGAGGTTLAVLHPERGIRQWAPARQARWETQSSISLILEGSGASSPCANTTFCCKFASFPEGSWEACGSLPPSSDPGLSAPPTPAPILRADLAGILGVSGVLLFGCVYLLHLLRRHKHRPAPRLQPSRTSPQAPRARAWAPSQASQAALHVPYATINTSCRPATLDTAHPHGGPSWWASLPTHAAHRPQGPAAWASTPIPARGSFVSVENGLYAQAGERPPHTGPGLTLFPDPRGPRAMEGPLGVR

[9] = target: T7, cynomolgus PVRIG on cells (cynomolgus, UniProt A0A2K5WVV8 41-322); experiment: FACS, cyno PBMC, NK cells, 10ug/ml
T7 construct: whole, on cells; also called cPVRIG; expi cPVRIG cells
T7 sequence: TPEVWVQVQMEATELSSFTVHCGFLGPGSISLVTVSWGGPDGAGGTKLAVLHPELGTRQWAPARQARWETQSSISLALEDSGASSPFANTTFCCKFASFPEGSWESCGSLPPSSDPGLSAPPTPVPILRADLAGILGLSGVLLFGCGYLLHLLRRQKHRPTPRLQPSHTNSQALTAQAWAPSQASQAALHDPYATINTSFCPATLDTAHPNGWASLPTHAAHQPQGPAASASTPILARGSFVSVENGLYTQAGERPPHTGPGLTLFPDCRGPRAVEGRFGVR

[10] = target: T7, cynomolgus PVRIG on cells; experiment: FACS, cyno PBMC, NK cells, 10ug/ml; remark: listed apart in the source
[11] = target: T7, cynomolgus PVRIG on cells; experiment: FACS, cyno PBMC, CD8+ T cells, 10ug/ml
[12] = target: T7, cynomolgus PVRIG on cells; experiment: FACS, cyno PBMC, CD8+ T cells, 10ug/ml; remark: listed apart in the source
[13] = target: T6, human PVRIG on cells; experiment: FACS, human PBMC, CD8+ T cells, 10ug/ml
[14] = target: T6, human PVRIG on cells; experiment: FACS, human PBMC, CD8+ T cells, 10ug/ml; remark: listed apart in the source
[15] = target: T6, human PVRIG on cells; experiment: FACS, human PBMC, CD56 int. NK cells, 10ug/ml
[16] = target: T6, human PVRIG on cells; experiment: FACS, human PBMC, CD56 int. NK cells, 10ug/ml; remark: listed apart in the source
[17] = target: T6, human PVRIG on cells; experiment: FACS, Jurkat cells, relative to control, 3.3ug/ml
[18] = target: T6, human PVRIG on cells; experiment: FACS, HEK hPVRIG over HEK parental cells, 3.3ug/ml
[19] = target: T7, cynomolgus PVRIG on cells; experiment: FACS, expi cPVRIG over expi parental cells, 3.3ug/ml
[20] = target: T7, cynomolgus PVRIG on cells; experiment: as above; remark: listed apart in the source
[21] = target: T8, PVRIG (FACS-based competition assay of FIGS. 7 and 15) (Homo sapiens, UniProt Q6DKI7); experiment: FACS-based competition assay of PVRIG blocking; format and competitor not given
T8 construct: made because the format of the assay is only described in U.S. Ser. No. 15/048,967; also called human PVRIG
T8 sequence (receptor, looked up): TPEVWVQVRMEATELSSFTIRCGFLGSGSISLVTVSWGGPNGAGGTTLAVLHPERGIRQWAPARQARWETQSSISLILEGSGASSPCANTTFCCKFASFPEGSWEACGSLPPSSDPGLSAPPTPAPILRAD

[22] = target: T8, PVRIG (FACS-based competition assay of …); experiment: as above; remark: listed apart in the source
[23] = target: T2, human TIGIT on cells; experiment: FACS titration of AF647-labelled mAb on human effector memory CD8+ T cells, Donor 321
[24] = target: T2, human TIGIT on cells; experiment: FACS titration of AF647-labelled mAb on human effector memory CD8+ T cells, Donor 322
[25] = target: T2, human TIGIT on cells; experiment: FACS titration of AF647-labelled mAb on human effector memory CD8+ T cells, Donor 334
[26] = target: T2, human TIGIT on cells; experiment: FACS titration on human TIGIT OE Expi293 cells, binding site concentration; ± 95% CI; 'Fit: Excellent'
[27] = target: T1, cyno TIGIT on cells; experiment: FACS titration on cyno TIGIT OE Expi293 cells, binding site concentration; ± 95% CI; 'Fit: Good/Excellent'
[28] = target: T2, human TIGIT on cells; experiment: FACS blocking of human PVR-m2aFc binding to human TIGIT OE Expi293 cells; binding site concentration; n=1
[29] = target: T2, human TIGIT on cells; experiment: FACS blocking of human PVR-m2aFc binding to human TIGIT OE Expi293 cells; binding site concentration; n=2

T3 sequence (ECD with C-terminal His tag, as listed by the source): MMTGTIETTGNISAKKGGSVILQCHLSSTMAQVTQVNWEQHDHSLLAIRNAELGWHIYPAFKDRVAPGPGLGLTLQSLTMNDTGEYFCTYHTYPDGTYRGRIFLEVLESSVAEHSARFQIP

B1: CPA.9.103 (fab) (Fab, V domains shown)
VH: EVQLVETGGGLIQPGGSLRLSCAASGFTVSSNYMSWVRQAPGKGLEWVSVIYSGGSTYYADSVKGRFTISRDNSKNTLYLQMNSLRAEDTAVYYCARGARPNGQYPYWGQGTLVTVSS
VL: DIQLTQSPSFLSASVGDRVTITCRASHGIKSLFSWYQQKPGKAPKLLIYAASTLQTGVPSRFSGSASGTEFTLTISSLQPEDFATYYCLQLDSFPTWTFGQGTKVEIK
notes: variant of CPA.9.059 screened as fab
[1]
  MFIr (OE/Par) cTIGIT: 30
[2]
  MFIr (OE/Par) hTIGIT: 95

B2: CPA.9.103 (antibody, human IgG4 S228P, kappa, V domains shown)
VH: EVQLVETGGGLIQPGGSLRLSCAASGFTVSSNYMSWVRQAPGKGLEWVSVIYSGGSTYYADSVKGRFTISRDNSKNTLYLQMNSLRAEDTAVYYCARGARPNGQYPYWGQGTLVTVSS
VL: DIQLTQSPSFLSASVGDRVTITCRASHGIKSLFSWYQQKPGKAPKLLIYAASTLQTGVPSRFSGSASGTEFTLTISSLQPEDFATYYCLQLDSFPTWTFGQGTKVEIKR
modifications: AF647 dye on the antibody in the FACS assay of FIG. 73
notes: fab form is m92; also called CPA.9.103.H4(S241P)
[3]
  Kd: 0.337 nM
[4]
  Kd: 0.0064 nM
[5]
  Kd: 25 nM
[6]
  Kd: 31 nM
[7]
  Kd: 25 nM

B3: CPA.9.101 (fab) (Fab, V domains shown)
VH: EVQLVETGGGLIQPGGSLRLSCAASGFTVSSNYMSWVRQAPGKGLEWVSVIYSGGSTYYADSVKGRFTISRDNSKNTLYLQMNSLRAEDTAVYYCARGAPLFGQYPYWGQGTLVTVSS
VL: DIQMTQSPSSLSASVGDRVTITCRASHAIASLFSWYQQKPGKAPKLLIYAASTLQTGVPSRFSGSASGTEFTLTISSLQPEDFATYYCLQLDSFPTWTFGQGTKVEIK
notes: as for B1
[1]
  MFIr (OE/Par) cTIGIT: 22
[2]
  MFIr (OE/Par) hTIGIT: 130

B4: CHA.7.548 (antibody, V domains shown)
VH: EVQLQQSGPELVKPGASVKISCKASGYTFTDYSMNWVKQSHGKSLEWIGDITPNNGSPNYNQKFKDKATLTVDKSSSTVYMELRSLTSEDSAVYYCASLFFDYWGHGTTLTVSS
VL: DIVMTQSPSSLSVSAGEKVTMSCKSSQSLLNSGNQKNYLAWYQQKPGQPPKLLIYGASTRDSGVPDRFTGSGSGTDFTLTITSVQAEDLAVYYCQNDHTYPYTFGGGTKLEIK
[8]
  EC50: 0.27 nM
[9]
  gMFIr Cyno NK cells: 1.18
[10]
  gMFIr Cyno NK cells: 1.18
[11]
  gMFIr Cyno CD8+ T cells: 1.09
[12]
  gMFIr Cyno CD8+ T cells: 1.09
[13]
  gMFIr Human CD8+ T cells: 3.35
[14]
  gMFIr Human CD8+ T cells: 3.35
[15]
  gMFIr Human CD56 int. NK: 3.15
[16]
  gMFIr Human CD56 int. NK: 3.15
[17]
  gMFIr Jurkat: 7.37
[18]
  gMFIr HEK OE/par: 45.3
[19]
  gMFIr Expi cyno OE/par: 4.25
[20]
  gMFIr Expi cyno OE/par: 4.25
[21]
  IC50: 19 nM
[22]
  IC50: 19 nM

B5: CHA.9.547.1 (antibody, human IgG4 S228P, kappa, V domains shown)
VH: EVQLVESGGGLVQPGGSLRLSCAASGFTFSSYIMSWVRQAPGKGLEWVSTISGGGTNTYYADSVKGRFTISRDNSKNTLYLQMNSLRAEDTAVYYCAKWLLSYYAMDYWGQGTLVTVSS
VL: DIQMTQSPSSLSASVGDRVTITCRASQNINVWLTWYQQKPGKAPKLLIYKASNLHTGVPSRFSGSGSGTDFTLTISSLQPEDFATYYCQQGQSYPYTFGQGTKLEIKR
modifications: AF647 dye on the antibody in the FACS assay of FIG. 73
notes: also called CHA.9.547.1.H4(S241P)
[3]
  Kd: 1.13 nM
[5]
  binding result: no binding (tested: not printed)
[6]
  Kd: 25 nM
[7]
  Kd: 19 nM

B6: CHA.9.547.7.H4(S241P) (antibody, human IgG4 S228P, kappa, V domains shown)
VH: EVQLVESGGGLVQPGGSLRLSCAASGFTFSSYIMSWVRQAPGKGLEWVATISGGGTNTYYADSVKGRFTISRDNSKNTLYLQMNSLRAEDTAVYYCAKWLLSYYAMDYWGQGTLVTVSS
VL: DIQMTQSPSSLSASVGDRVTITCRASQNINVWLTWYQQKPGKAPKLLIYKASKSHTGVPSRFSGSGSGTDFTLTISSLQPEDFATYYCQQGQSYPYTFGQGTKLEIKR
notes: humanized hybridoma anti-TIGIT antibody, human IgG4
[3]
  Kd: 0.456 nM
[4]
  Kd: 0.035 nM
[5]
  binding result: no binding (tested: not printed)
[23]
  Kd: 1.8 nM
[24]
  Kd: 2.1 nM
[25]
  Kd: 1.8 nM
[26]
  Kd: 0.82 nM
[27]
  Kd: 1.54 nM
[28]
  IC50: 0.21 nM
[29]
  IC50: 0.15 nM
